Reference: the DeepSol protein solubility set

Test: soluble on expression in E. coli; label from the status in PepcDB or PDB records

Row | Sequence | soluble on expression in E. coli
1 | MDYVCSVVFICQSFDLIINRRVISFKKNSLFIVSDKIRRELPVCPSKLRIVDIDKKTCLSFFIDVNNELPGKFTLDKNGYIAEEEPPLSLVFSLFEGIKIADSHSLWLKERLCISLLAMFKKRESVNSFILTNINTFTCKITGIISFNIERQWHLKDIAELIYTSESLIKKRLRDEGTSFTEILRDTRMRYAKKLITSNSYSINVVAQKCGYNSTSYFICAFKDYYGVTPSHYFEKIIGVTDGINKTID | not soluble
2 | MTQEIDIGKYHQLALQKQKEHRKFLATLKKKAPKNLDKIVQEVHTEVFREIDCTKCANCCKILGPLFTESDISRIAKHFRMRLPVFEDMYLRVDEDNDKVFKSMPCPFLGEDNLCFIYDVRPKACREFPHTDRKKIYQINHLTIQNTLICPAVYLFVEKLQERLALEHHHHHH | soluble
3 | MGSDKIHHHHHHMLDHLCVNMLSSCPRCASSSGNRASRRYPMRINADFTRRAAVHFDQTDWVPSPAPGVERKMLDRIGAEVARATTIVRFAPGSAFSAHTHDGGEEYLVLDGVFQDELGDFPVGSYVRNPPTSSHTPATEPGATILVKLHQFDPADRTEVRRSINGKSDETLFSDSHEEVRLESWAAGAQVTRDLPGGIEVFVLEGGFQEGGETFSRWDWLRLPPGARLDLTAGAEGARVWVKSGHLAAMV | not soluble
4 | MGSDKIHHHHHHMAYRSAPLYEDVIWRTHLQPQDPTLAQAVRATIAKHREHLLEFIRLDEPAPLNAMTLAQWSSPNVLSSLLAVYSDHIYRNQPMMIRENKPLISLWAQWYIGLMVPPLMLALLTQEKALDVSPEHFHAEFHETGRVACFWVDVCEDKNATPHSPQHRMETLISQALVPVVQALEATGEINGKLIWSNTGYLINWYLTEMKQLLGEATVESLRHALFFEKTLTNGEDNPLWRTVVLRDGLLVRRTCCQRYRLPDVQQCGDCTLK | not soluble
5 | MGSDKIHHHHHHMTLGIAFVGSGFSAKFHLRGLVGVRNVEVKGVYSRNLNSSKEFAMLSEQLGLGKPKVYSDISKMLSDKEINAVWLTVPNDVHLEYTKLIAEEVSQGRSNIHGITIEKPLARNVKEAKEMIRLVEKAGLLHGYLENQIFMPSVVRAREAIWEIGSRNSGRPYLARAAEEHSGPHNSWFWRPTISGGGALIDMTCHSLEATRFLLTDPAKTKSSLKPKTVYAETKTLKWNKKEYAQYLKEKYNVDFLKEPAEDYALTIVTYEDDLGNSVLAETRTSWNYVGPGLRLSVEVLGPEYSVNINTLQSELSVFFSRNIKLPQSEAFVEKQNADQGLMPIILDEAVVYGYQGEDRHMVESFISRKMPFENWYDGLLIVQLMMHAYLSAENGRKISFDPQKVEDFIPKVARGLYSAF | not soluble
6 | MGGSHHHHHHGMASALLDIECFTYLHRALESSIAPIVIFASNRGNCVIRGTEDITSPHGIPLDLLDRVMIIRTMLYTPQEMKQIIKIRAQTEGINISEEALNHLGEIGTKTTLRYSVQLLTPANLLAKINGKDSIEKEHVEEISELFYDAKSSAKILADQQDKYMK | not soluble
7 | MDLSTSGSLPCHLPLSLLTNLQTPPIDTSFSSPPATSSSSLLSPSPSSAFRPVVPKSLMNPQPAMDTFYMSAIQSLVVSTTNDDQYSEHGALEGSKSLAKDENASTSAGTILCQVCSDKASGFHYGVFACEGCKGFFRRSIQQKITYRACTRAEDCLILRNNRNRCQCCRLKKCLAVGMSRDAVRFGRVPKREKARMFEEMQKTNVQSQRDQIAIQYENLTEVMHKINQAFGTLQATLEKCTGPIYTDRCPITSNFIVIPLKAAIDFANSIPAFLSITQTQRVHLLQNSVFDVMLLASASASTSQHFPPGGLTYDQSSANPIIPQAIQSISARIRQLPPQTVPILTAIAVCQADLLPESQQPMLLAERLWCVLGKLGGIQSLATAPSLLADVRTLRQWHSDRLRQMSQISQHFSQNLLIAPVAAAAPVLLPPAFLSPPASATSTSSSSVKSEFIERHPSIASLLERPRRISSSGAQEPLNLSLPHVRHQVKRDVDSDEQLEEMKVSPVPTTLSE | not soluble
8 | MSLKSTVLLIDDDQDVLDSYLHLMSIAGLTAKAVIDPTQAMSHIQPDWNGVVLLDMYMPQLHGMELLKQIKAVDDKIPVIVITGHGDIPMAVEAVKMGACDFLEKPINPPQLLTLIKQHLELRRSFIEQKLLLSRSVKRELVGKSAQMEQIRSHVAQYALLNRHVVIVGESGCGRHTIAYLIHQLTTNNGHLPWVELVASAKTEWSTVEPKVQESAGGTLLIDHIELLSEEVQRNVVQSLLNQERLNRPRTRVIAVIDQPPEQLIAQNQLLPELYYLLNQGQIDVPLLRQRPDDIAALFHYFLKQSCYKLGKPMPNVEPHYLALLRAHQWPGNVRELRNVAELYAIGIVKLAGKERLYNQEEMLSPLDELVDDYEKQVIEDALFLFSGRVADAANYLQVPRKKLYLRMKKHGLEKDAFKAREGHHHHHH | soluble
9 | MDRQAIEKTAGHLRPLMPTPPEIGLILGSGLGVLADEIEEAVRIPYEDIPGFPVSTVEGHAGRLVYGRLEGATVVAMQGRFHYYEGYSLQEVTFPVRVMKALGVRELIVTNAAGGINERFQPGDFMIISDHINLLGTNPLIGPNDPELGPRFPDMTEAYSRRLRELAKETAARLGVRVHEGVYVANTGPSYETPAEIRMIRTLGGDAVGMSTVPEVIVARHGGIEVLGISCISNMAAGMSDAPLHHDEVVETAERVKTDFLRFVKAIVAEMAKSKRKR | soluble
10 | MGSDKIHHHHHHMKPQLIASCWTSAGDAAPDRDDLSSPVAIDERIALVAETGWAGIGLVHADLIKARDTIGYEELRRRIHAAGIEIIEVEFLNGWWATGAERQESDAVRADLFAAAQALGSPHIKVGAGEGTNGVVPIAHMASAFTDLAAEAEAHGVKLALEATPFSHLKTIYDALEVVSHSDSPSAGLMVDIWHTAKIGIPNDELWRNIPLSKVNAVEVDDGFIDTPIDLFDDSTNRRAYCGEGEFDPASFIRGAIDAGWTGAYGVEIISAEHRSLPVKEGLQRAFDTTIAAFEQAARLAPSTN | not soluble
11 | MDWDDEYSHNSFDLHCLLNSFPGDLEFEQIFSDIDEKIEQNAASIKHCIKEIQSEINKQCPGVQLQTTTDCFEWLTNYNYSTSESSFISHGDLIKFFKTLQDLLKNEQNQEEMTLDLLWDLSCHSSVSFPSTLSGTSFHFLSRTSLHSVEDNSSMDVKSMWDDIRLHLRRFLVSKLQSHNEINNSQQKILLKKQCLQQLLFLYPESEVIIKYQNIQNKLLANLLWNCFPSYNRDSNLDVIAHGYQSTMLKLYSVIKEDFNTLCEILAPSSMVKFIKETYLDTVTEEMAKFLENFCELQFRENAVRVVKTSKSSSKHRGAVHALG | soluble
12 | MTASRPAFLHLSPADTVGIALRALPSGEEALGVTLRADVPLGHKFAVVAMPAGTAVVKYGQVMGVATADIAPGDHVHSHNCAMSDSHSNRADAKGTLHAAPGRQTFQGYLRPDGRVGTRNYIGIMASVNCSSTVCNAIAEAANRTLLPRFPGIDGFAPIVHDQGCGMASAGEGFDALVRVLKGYRDHPNFGGVLIVGLGCEVNQLTLYKRTDWTEERIGIFNIQDVGGSASAVRRALELLEPICAAADQDRRSEQPVSKLVLGMQCGGSDGFSGITANPALGVASDMLVAAGGTSILSETPEIYGAEHLLIARADAETGRRIEGMIDWWRDYAAKNGASLDNNPSPGNKRGGLTTILEKSLGAVAKGGLSPLAGAFAYAEPIRIPGLVYMDSPGYDPVAATGQVASGANLIAFTTGRGSCFGAKPAPSIKLASNSDLARRMPEDMDIDCGVVVEEGVSLEEMGRRIYDLLLDTASGKRSKSEEFGYGDNEFVPWKIGATL | not soluble
13 | MDWFGVDAGTLREGDRADFVVIDPNCLNSDVDAYHEETVPFYGGLSRMVNRNDDAVVATAVNGTVVFGKGEFRDGYGLEHHHHHH | not soluble
14 | FNCLGMSNRDFLEGVSGATWVDLVLEGDSCVTIMSKDKPTIDVKMMNMEAANLAEVRSYCYLATVSDLSTKAACPTMGEAHNDKRADPAFVCRQGVVDRGWGNGCGLFGKGSIDTCAKFACSTKAIGRTILKENIKYEVAIFVHGPTTVESHGNYSTQVGATQAGRFSITPAAPSYTLKLGEYGEVTVDCEPRSGIDTNAYYVMTVGTKTFLVHREWFMDLNLPWSSAGSTVWRNRETLMEFEEPHATKQSVIALGSQEGALHQALAGAIPVEFSSNTVKLTSGHLKCRVKMEKLQLKGTTYGVCSKAFKFLGTPADTGHGTVVLELQYTGTDGPCKVPISSVASLNDLTPVGRLVTVNPFVSVATANAKVLIELEPPFGDSYIVVGRGEQQINHHWHKSGS | soluble
15 | MSLSIFTDLNTSRKWQIDQWLSAVNSHIEKIQQYGHSVVNPTPLLADGFEIKTQSPVVWQFPDGHDAPISNFASQQNWLRLLISMSVITETEKYRHLAFCQSEYFLNRFVDENSGLFYWGGHRFINLDTLASEGPESKSMVHELKHHLPYYEFLHQVNPEKTRHFIQGFWNAHVEDWSCLDLGRHGDYARQRDPDVFLHSRHDVVTPANWPELPLTKGLTFVNAGTDLIYAAFVYARHTGDAHAAAWGKHLYRQYVLARNPETGMPVYQFSSPLQRQPVPADDNQTQSWFGDRAQRQFGPEFGAIAREANVLFRDMRPLLIDNPLAMLDILRHQPDAEILTWVIAGLKNYYQYAYDVNSNSLRPMWNNGQDMTDYCFKRDGYYGKAGTVLKPFPLEGDYLLPLVRAWLLSDDDDLHTLIVTMLSRLEKQGIHQSASPFLLLAITELAHAKQSAQWAEYAWQMAEILFKRYFHHGLFVRSEHHRYVRLDDPFPAILLTLIAACRNKWSEVPAVLTQGGYIHGDYRINGESRVIYDTGIYLPRKINEGHHHHHH | not soluble
16 | MSEEQKTISISELESMNIKQLYEIAKSLGIPRYTSMRKRDLIFAILKAQTESTGYFFGEGVLEIHPEGFGFLRRIEDNLLPSNDDIYISPSQIRKFNLNTGDIISGVIRKPKEGEKYFAMIKIEAINYRPVEAVNDRVNFDNLTPDYPRERFILETDPKIYSTRLIDLFAPIGKGQRGMIVAPPKAGKTTILKEIANGIAENHPDTIRIILLIDERPEEVTDIRESTNAIVIAAPFDMPPDKQVKVAELTLEMAKRLVEFNYDVVILLDSLTRLARVYNIVVPPSGKLLTGGVDPAALYKPKRFFGAARNTREGGSLTIIATALVETGSKMDEVIFEEFKGTGNMELVLSRQLANKRIFPAINLLLSGTRREELLLDEETLKKVWLLRRMLSAMTEEEGLTLILNKLSETSSNEEFLKLIDKEKARY | soluble
17 | MTVEERSNTAKVDILGVDFDNTTMLQMVENIKTFFANQSTNNLFIVTANPEIVNYATTHQAYLELINQASYIVADGTGVVKASHRLKQPLAHRIPGIELMDECLKIAHVNHQKVFLLGATNEVVEAAQYALQQRYPNISFAHHHGYIDLEDETVVKRIKLFKPDYIFVGMGFPKQEEWIMTHENQFESTVMMGVGGSLEVFAGAKKRAPYIFRKLNIEWIYRALIDWKRIGRLKSIPIFMYKIAKAKRKIKKAK | not soluble
18 | MWYRALFPGATWRIPAKEGKSIYLTFDDGPIPEITPWVLDTLDELGVKATFFCVADNVRRYPDLFAEIQRRGHQVGNHTFHHLQGLKVRTRTYLKDVEEADRLINSRFFRPPHGHLRFMQTLLLSNHYDIIMWDVITRDYNARLSPDTVFGSVVRYARNGSIITFHDSLKAAPNMQQAMPRAVRWLLDEGYTFKCLGDPAD | not soluble
19 | MGSDKIHHHHHHMINFSQIQVFITIVESGGFIAAGEKMHRSQPAITNAIKKLESSLGFELFDRKVYRPQLTAKGKAFYQKAREVVAQFMQLENSAETLRSGVETQFSIDLDIALPLPGYAPLIQSFIRQYPETCFSLSNNTFVRCLERLERRECHLCIAASHIRSPQIEYLRMPSIRMIPVASRDYYDQHKERINNPKLGIYCMQIMIAGTQQELYQLKIEPLSHSMPKWLVGDMYIRKQLILSGMGIGRLPDHLVEKELAEGSLVQLNTRDYVAVTMDIYAMRLNNQEHGMVSNYAWQSLKSYAEDTVSPDLK | not soluble
